The values that follow come from patent publication US20260234269A1.

Experiment [1] addresses Human Galectin-3 protein (Acro Biosystems, GA3-H5129) (human) (UniProt P17931). Briefly: ELISA, hGal3 coated, competitor hTIM3 (FIG. 24). (In general: An ELISA detects its analyte on a solid surface through an enzyme-linked reagent.)
The target is the same in experiment [2]. Briefly: ELISA, hGal3 coated, antibody 3 ug/mL, competitor hTIM3.
For experiment [3] the target is unchanged. Put plainly: SPR Biacore T200, antibody captured, Galectin-3 analyte. In general terms: Surface plasmon resonance follows binding to a sensor surface in real time, without labels.

Sequence of Human Galectin-3 protein (Acro Biosystems, GA3-H5129) (human) (P17931 2-250): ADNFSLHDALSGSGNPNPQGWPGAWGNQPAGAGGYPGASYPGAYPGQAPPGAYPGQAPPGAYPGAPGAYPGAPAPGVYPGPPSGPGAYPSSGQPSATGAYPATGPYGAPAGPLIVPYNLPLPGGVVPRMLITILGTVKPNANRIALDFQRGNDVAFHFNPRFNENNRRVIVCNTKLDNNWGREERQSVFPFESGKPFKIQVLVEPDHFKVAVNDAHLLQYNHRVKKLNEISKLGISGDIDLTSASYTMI

B1: 9H2.2H1 (antibody, from a related filing, V domains shown)
VH: QVQLQQPGAELVGPGSSVKLSCKASGYTFTNYWIHWVKQRPLQGLEWIGNIDPSDSETHYNQKFKDKATLTVDKSSSTAYMQLSSLTSEDSAVYYCARHGYYDYWGQGTTLTVSS
VL: DIVMTQSHKFMSTSVGDRVSITCKASQDVSTAVAWYQQKPGQSPKLLIYWASTRHTGVPDRFTGSGSGTDYTLTISSVQAEDLALYYCQQHYTTPLTFGAGTKLELKR
The molecule B1 showed a reduction of TIM3-GAL3 binding in experiment [1] of less than 25%. In addition, in experiment [2], the GAL3-TIM3 Blocking @ 3 ug/mL amounted to 6%. Besides, the Kd in experiment [3] was found to be 18.4 nM.

Usually Kd stands for the concentration at which binding is half-saturated.
